The target of experiment [1] is VEGFR2 expressed by HUVEC (human, UniProt P35968 20-1356). Briefly: cell-based or functional assay.
In experiment [2] the target is T1, fusion protein of human VEGFR2 and Fc (human, UniProt P35968 20-764, limits assumed).
T1 construct: not shown: Fc
Nature of the experiment: BLI (ForteBio), VEGFR2-Fc on anti-human IgG capture biosensors, peptide in solution, 30 C. On the procedure:
A dissociation constant of binding between the cyclic peptide L1 or BL1 thus synthesized and human VEGFR2 or mouse VEGFR2 was determined by BLI method (ForteBio). A fusion protein of VEGFR2 and Fc was immobilized onto Anti-human IgG Capture Biosensors and the cyclic peptide L1 or BL1 varied in concentration was analyzed. The temperature was set at 30° C.
Background: Biolayer interferometry detects binding as a change in optical thickness at a sensor tip.

Experimental findings from US20150299258A1 (UNIVERSITY OF TOKYO, published 2015) are described below.

Broadly, the Kd is the free concentration of one partner at which half of the binding sites on the other are occupied at equilibrium, for simple one-to-one binding. Low values mean tighter binding, high ones weaker binding. Usually koff stands for a measure of how fast the partners let go of each other. Higher therefore signals fast dissociation. As a reminder, the kon is the rate constant with which the complex forms. Read a low kon as slower complex formation.

Positions of bridges follow the written chain, without caps; N, C: chain ends.

T1 sequence (P35968 20-764 limits assumed): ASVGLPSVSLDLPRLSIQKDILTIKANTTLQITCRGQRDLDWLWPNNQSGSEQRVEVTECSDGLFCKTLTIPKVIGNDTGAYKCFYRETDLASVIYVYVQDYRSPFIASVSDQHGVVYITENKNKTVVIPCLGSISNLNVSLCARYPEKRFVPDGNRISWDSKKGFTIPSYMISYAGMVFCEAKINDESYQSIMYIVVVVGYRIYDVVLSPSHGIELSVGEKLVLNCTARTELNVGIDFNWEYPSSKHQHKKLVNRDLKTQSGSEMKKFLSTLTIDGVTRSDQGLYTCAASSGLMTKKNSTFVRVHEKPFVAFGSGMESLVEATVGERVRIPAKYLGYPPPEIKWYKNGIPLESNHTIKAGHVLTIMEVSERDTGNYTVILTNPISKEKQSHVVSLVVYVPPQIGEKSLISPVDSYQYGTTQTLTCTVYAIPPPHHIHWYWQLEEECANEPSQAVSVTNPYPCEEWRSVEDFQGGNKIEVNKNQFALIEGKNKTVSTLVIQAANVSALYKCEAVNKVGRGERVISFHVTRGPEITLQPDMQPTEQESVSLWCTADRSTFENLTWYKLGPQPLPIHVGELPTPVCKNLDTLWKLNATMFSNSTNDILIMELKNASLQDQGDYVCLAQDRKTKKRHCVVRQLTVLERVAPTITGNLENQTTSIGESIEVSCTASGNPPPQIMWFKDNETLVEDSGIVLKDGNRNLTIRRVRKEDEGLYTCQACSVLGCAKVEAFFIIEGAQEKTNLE
Sequence of VEGFR2 expressed by HUVEC (P35968 20-1356): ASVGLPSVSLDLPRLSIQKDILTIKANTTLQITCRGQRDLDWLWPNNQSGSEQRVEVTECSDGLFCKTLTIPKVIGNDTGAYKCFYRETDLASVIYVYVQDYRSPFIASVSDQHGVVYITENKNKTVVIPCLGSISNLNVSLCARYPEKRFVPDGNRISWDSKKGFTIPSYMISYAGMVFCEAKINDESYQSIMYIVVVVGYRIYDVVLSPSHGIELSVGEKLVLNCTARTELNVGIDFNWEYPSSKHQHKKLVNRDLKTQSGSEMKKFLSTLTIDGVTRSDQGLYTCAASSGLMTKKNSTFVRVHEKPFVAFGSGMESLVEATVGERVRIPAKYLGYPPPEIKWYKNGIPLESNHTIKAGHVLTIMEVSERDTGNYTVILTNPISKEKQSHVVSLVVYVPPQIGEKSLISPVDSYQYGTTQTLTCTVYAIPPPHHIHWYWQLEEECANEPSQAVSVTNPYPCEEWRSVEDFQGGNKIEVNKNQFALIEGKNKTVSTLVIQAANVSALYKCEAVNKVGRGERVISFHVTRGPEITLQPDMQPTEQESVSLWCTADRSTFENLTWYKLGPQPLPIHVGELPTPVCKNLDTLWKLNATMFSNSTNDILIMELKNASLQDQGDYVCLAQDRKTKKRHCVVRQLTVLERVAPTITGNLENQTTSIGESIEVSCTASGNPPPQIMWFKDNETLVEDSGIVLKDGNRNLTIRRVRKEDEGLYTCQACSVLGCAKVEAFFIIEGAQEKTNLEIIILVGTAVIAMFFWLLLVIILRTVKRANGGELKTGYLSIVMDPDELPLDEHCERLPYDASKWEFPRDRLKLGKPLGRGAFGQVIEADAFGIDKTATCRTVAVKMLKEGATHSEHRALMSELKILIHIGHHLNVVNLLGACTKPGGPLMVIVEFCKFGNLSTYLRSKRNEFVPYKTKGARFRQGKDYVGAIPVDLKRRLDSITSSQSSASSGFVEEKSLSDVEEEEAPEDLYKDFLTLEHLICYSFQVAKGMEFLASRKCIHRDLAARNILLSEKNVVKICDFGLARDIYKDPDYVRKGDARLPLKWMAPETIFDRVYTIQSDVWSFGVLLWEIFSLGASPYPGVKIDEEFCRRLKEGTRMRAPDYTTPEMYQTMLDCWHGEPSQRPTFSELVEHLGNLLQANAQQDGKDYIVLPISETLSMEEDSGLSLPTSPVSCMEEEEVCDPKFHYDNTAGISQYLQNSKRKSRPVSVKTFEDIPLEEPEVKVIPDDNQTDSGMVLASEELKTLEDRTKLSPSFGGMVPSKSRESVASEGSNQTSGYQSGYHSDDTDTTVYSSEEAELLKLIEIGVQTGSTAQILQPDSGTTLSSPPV

B1: cyclic peptide L1, synthesized: ClAc-Phe-Val-Val-Val-Ser-Thr-Asp-Pro-Trp-Val-Asn-Gly-Leu-Tyr-Ile-Asp-Cys-Gly (peptide)
peptide: {CH2CO}-FVVVSTDPWVNGLYIDCG-NH2
modifications: thioether N-17
SMILES: CC[C@H](C)[C@@H]1NC(=O)[C@H](Cc2ccc(O)cc2)NC(=O)[C@H](CC(C)C)NC(=O)CNC(=O)[C@H](CC(N)=O)NC(=O)[C@H](C(C)C)NC(=O)[C@H](Cc2c[nH]c3ccccc23)NC(=O)[C@@H]2CCCN2C(=O)[C@H](CC(=O)O)NC(=O)[C@H]([C@@H](C)O)NC(=O)[C@H](CO)NC(=O)[C@H](C(C)C)NC(=O)[C@H](C(C)C)NC(=O)[C@H](C(C)C)NC(=O)[C@H](Cc2ccccc2)NC(=O)CSC[C@@H](C(=O)NCC(N)=O)NC(=O)[C@H](CC(=O)O)NC1=O
notes: Made by Fmoc solid-phase synthesis, cyclised and HPLC purified; this form was used in BLI and in the cell assays
For B1, in experiment [1], the “growth inhibition of HUVEC with 10 ng/mL VEGF (BrdU method), IC50” value is 60 nM. In experiment [2], this molecule returned a Kd of 94 nM, a koff of 0.002 s⁻¹ and a kon of 20000 M⁻¹ s⁻¹.
